# Data: patent US8409833B2 (Hokko Chemical Industry Co., Ltd., priority 2003, dated 2013)
# Entries after “also recorded” stand apart in the source; their conditions may differ.
# Experiments:
# Format in all cases: biochemical
# [1] = Substrate specificity of scyllo-inositol dehydrogenase (relative activity of oxidation, absorbance at 545 nm); conditions: relative to reactivity to scyllo-inositol, NADP^+, pH 8.0, 25° C.
# Description: Examples of an inositol isomer include scyllo-inositol (SI), myo-inositol (MI), D-chiro-inositol (DCI), L-chiro-inositol (LCI), epi-inositol (EI), muco-inositol (MuI), allo-inositol (AI), and neo-inositol (NI).
# The inositol isomers include scyllo-inositol (SI), myo-inositol (MI), D-chiro-inositol (DCI), L-chiro-inositol (LCI), epi-inositol (EI), muco-inositol (MuI), allo-inositol (AI), and neo-inositol (NI).
# The reaction rate was calculated from the absorbance increments at the respective times.
# [2] = Effects of heavy metal on scyllo-inositol dehydrogenase; conditions: 2 mM heavy metal in reaction solution; no addition group = 100%
# Description: Effects by the heavy metals can be confirmed by: mixing 5 μl of a reaction solution (200 mM Tris buffer of pH 8.0 containing 2% of NADPH, 1% of scyllo-inosose, and 2 mM metal salt) and 5 μl of an enzyme solution; allowing the mixture to react at 36° C. for 30 minutes; adding 500 μl of water immediately after the completion of the reaction; determining the absorbance at 340 nm; and determining a decrease in the absorbance at 340 nm with respect to a blank value of a test solution containing water instead of the enzyme solution. The term “activated” means the case where the enzymatic activity of a fraction added with 1 mM of a heavy metal is 105% or more, preferably 120% or more, with respect to the enzymatic activity of a fraction added with no heavy metal as 100%. On the other hand, the term “inhibited” means the case where the enzymatic activity of the fraction added with 1 mM of a heavy metal is 95% or less, preferably 70% or less, with respect to the enzymatic activity of the fraction added with no heavy metal as 100%.
# The effects of heavy metal on the enzymes of the present invention were determined by: mixing 5 μl of a reaction solution (200 mM Tris buffer (pH 8.0), 2% of NADPH, 1% of scyllo-inosose, and 2 mM of a heavy metal) with 5 μl of an enzyme solution; and allowing the mixture to react at 36° C. for 30 min. After the reaction, 500 μl of water was immediately added thereto, and the absorbance at 340 nm was measured. From the blank value of a test solution prepared by using water instead of the enzyme solution, the decrease in the absorbance at 340 nm was measured. The enzyme solution was diluted as required. CaCl2, CoCl2, ZnSO4, MgSO4, SnCl2, NiCl2, and MnSO4 were used as metallic salts. The activity of the no addition group was defined as 100%, and the relative activities were compared. […] Most of the enzymes were inhibited in the presence of Zn^2+ ion, in contrast, the enzyme derived from Bacillus subtilis 168 was activated in the presence of Zn^2+ ion.
# [3] = Km values of scyllo-inositol dehydrogenase for scyllo-inosose (reciprocal plot); conditions: NADPH, pH 8.0, 36° C.
# Description: The determination is carried out such that the Km value is calculated after reciprocal plot according to the general method.
# After the reaction, […] of water was immediately added thereto, and the absorbance at 340 nm was measured. From the blank value of a test solution prepared by using water instead of the enzyme solution, the decrease in the absorbance at 340 nm was measured. The enzyme solution was diluted as required. The Km values were calculated by the reciprocal plot.
# [4] = Optimum pH of scyllo-inositol dehydrogenase; conditions: 200 mM phosphate buffer (pH 5.0 to 9.0); 90% or more of the maximum activity
# Description: The optimum pH can be confirmed by: mixing 5 μl of a reaction solution (200 mM […] of pH 5.0 to 9.0 containing 2% of NADPH, and 1% of scyllo-inosose) and 5 μl of an enzyme solution; allowing the mixture to react at 36° C. for 30 minutes; adding 500 μl of water immediately after the completion of the reaction; determining the absorbance at 340 nm; and determining a decrease in the absorbance at 340 nm with respect to a blank value of a test solution containing water instead of the enzyme solution. The term “optimum pH” means a pH at which the enzyme has 90% or more of the maximum activity. The enzyme of the present invention can be divided depending on, for example, a range of the optimum pH into groups each having: an optimum pH in an acidic region (optimum pH is pH of 5.5 to 6.5); an optimum pH in a neutral region (optimum pH is pH of 6.5 to 7.5 or 6.5 to 8.5); and an optimum pH in an alkaline region (optimum pH is pH of 7.0 to 8.5 or 7.5 to 9.0).
# The optimum pH of the enzymes of the present invention was determined by: mixing 5 μl of a reaction solution (200 mM phosphate buffer (pH 5.0 to 9.0), 2% of NADPH, and 1% of scyllo-inosose) with 5 μl of an enzyme solution; and allowing the mixture to react at 36° C. for 30 min. After the reaction, 500 μl of water was immediately added thereto, and the absorbance at 340 nm was measured. From the blank value of a test solution prepared by using water instead of the enzyme solution, the decrease in the absorbance at 340 nm was measured. The enzyme solution was diluted as required.
# [5] = Enzyme reaction product of scyllo-inosose reduction measured by HPLC; conditions: for Reduction reaction product: SIS: scyllo-inosose, SI: scyllo-inositol; for share of scyllo-inositol in the product of scyllo-inosose reduction: 10 mg scyllo-inosose, 40 mg NADPH, 10 U enzyme, 36° C., 4 hours, myo-inositol not detected
# Description: Meanwhile, the enzyme reaction product was measured as follows: 10 mg of scyllo-inosose, 40 mg of NADPH, and 10 U of the enzyme were allowed to react in 1.0 ml of 100 mM Tris buffer (pH 8.0) at 36° C. for 4 hours, and a heat treatment was performed at 80° C. for 10 min, followed by cooling. Then, 100 μl of a strong base cation exchange resin, 100 μl of a strong acid anion exchange resin, and 10 mg of activated carbon were added, and the mixture was stirred and centrifuged. Then, the supernatant was diluted 2-fold, and measurement was performed by HPLC (Shodex Asahipak NH2P-50 4E Φ 4.6×250 mm: Shodex) using an RI detector under the condition of a column temperature of 40° C. and a mobile phase flow rate of 1.5 ml (80% acetonitrile). […] Meanwhile, the sequence of the ydgJ gene is shown in SEQ ID NO: 1, and the amino acid sequence corresponding thereto is shown in SEQ ID NO: 2.
# Meanwhile, enzyme reaction product was measured as follows: 10 mg of scyllo-inosose, 40 mg of NADPH, and 10 U of the enzyme were allowed to react in 1.0 ml of 100 mM Tris buffer (pH 8.0) at 36° C. for 4 hours, and a heat treatment was performed at 80° C. for 10 min, followed by cooling. Then, 100 μl of a strong base cation exchange resin, 100 μl of a strong acid anion exchange resin, and 10 mg of activated carbon were added, and the mixture was stirred and centrifuged. Then, the supernatant was diluted 2-fold, and measurement was performed by HPLC (Shodex Asahipak NH2P-50 4E Φ 4.6×250 mm: Shodex) using an RI detector under conditions of a column temperature of 40° C. and a mobile phase flow rate of 1.5 ml (80% acetonitrile).
Molecule,Substrate specific Relative activity (less than 20%) [1],Heavy metal effects: activation [2],Heavy metal effects: strong inhibition [2],Km [3] [mM],Optimum pH [4],Reduction reaction product [5],Substrate specific Relative activity (20 to 70%) [1],Substrate specific Relative activity (70% or more) [1],share of scyllo-inositol in the product of scyllo-inosose reduction [5] [%]
"SIDH1: scyllo-inositol dehydrogenase purified from Acetobacter sp. AB10281, DEAE-unadsorbed fraction, SEQ ID NO: 28 (protein, listed as Acetobacter sp.) MTKRKLRIGLIGSGFMGRTHAFGYSTASRVFDLPFQPELTCLADISDEAAAKAADALGFARSTSDWRTLVNDPEIDVVNITAPNAFHKEMALAAIAAGKHVYCEKPLAPLAADAREMAEAAEAKGVKTQVGFNYLCNPMLALARDMIAAGELGEIRGYRGLHAEDYMADASSPFTFRLDPAGGGALADIGSHALATAEFLMGPAAGAITQVMGDCVTVIKTRPDGKGGTRAVEVDDIGRALLRFENGATGSVEGNWIATGRTMQHDFEVYGTKGALAFTQQRFNELHFFSSTDARGRKGFRRIEAGPEHAPYGLFCVAPGHQLGFNDLKAIEVARYLEALAGHHPEPFNFRAGLRIQTLVETIHASSKSAAWRDVPTDKVKLQAKSRQHEKA","DCI, LCI, EI,; also recorded: MuI, AI, NI",Co,"Sn, Zn",7.6,pH 5.5-6.5,Only SIS → SI,–,–,–
"AB10121 Atu3234 gene: recombinant scyllo-inositol dehydrogenase, Atu3234 gene product of Agrobacterium sp. AB10121 FERM P-17383, SEQ ID NO: 12 (protein, listed as Agrobacterium sp.) MAIEGKTTDKANKRIRLGMVGGGSGAFIGGVHRMAARLDNRFDLVAGALSSTPEKSLASGRELGLDPERCYGSFEEMAEKEALREDGIEAVAIVTPNHVHYPAAKAFLERGIHVICDKPLTSNLEDAKKLKDVADKADALFILTHNYTGYPMVRHARELVESGALGTIRLVQMEYPQDWLAEPIEQTGAKQAVWRTDPAQSGAGGSTGDIGTHAYNLGCFISGLEVDELAADVHTFVEGRRLDDNAHVMLRFKPKGGKQPAKGLLWCSQVAVGHENGLKVRVYGDKAGIEWTQADPNYLWFTKLGELKQLITRGGAGAGAAAARVTRIPSGHPEGYLEAFATIYTEAAHAIEARRTGSVLDKAVIYPTVDDGVKGVAFVTACIESGKKNGVWVKL","AI, NI","Co, Mn, Ca","Sn, Zn",3.1,pH 7.0-8.5,Only SIS → SI,MuI,"SI, MI, DCI, EI, and LCI",100
"AB10121 Atu4375 gene: recombinant scyllo-inositol dehydrogenase, Atu4375 gene product of Agrobacterium sp. AB10121 FERM P-17383, SEQ ID NO: 10 (protein, listed as Agrobacterium sp.) MSSAPKKFDSRRIRLGMVGGGQGAFIGAVHRIAARLDDRYELVAGALSSDPARAAASATLLGIAPERSYASFEEMAAAEAGRDDGIEAVAIVTPNHLHFAPSKAFLEAGIHVICDKPVTATLEEAKALAEIVRASDSLFVLTHNYTGYAMLRQMRQMVADGAIGKLRHVQAEYAQDWLTEAVEKTGAKGAEWRTDPSRSGAGGAIGDIGTHAFNAAAFVTGEIPKSLYADLTSFVPGRQLDDSANILLRYESGAKGMLWASQIAVGNENALSLRVYGEKGGLEWHHRVPDELWFTPYGEPKRLITRNGAGAGAAANRVSRVPSGHPEGYLEGFATIYREAADAIIAKREGKAAAGEVIYPGMEDGLAGLAFIDAAVRSSQTSTWINIDI","AI, NI","Co, Mn","Sn, Zn",9.8,pH 6.5-8.5,Only SIS → SI,"LCI, MuI","SI, MI, DCI, EI",100
"Xcc3438 gene: recombinant scyllo-inositol dehydrogenase, Xcc3438 gene product of Xanthomonas campestris pv. campestris ATCC33913, SEQ ID NO: 14 (protein, Xanthomonas campestris pv. campestris) MPKPFNLAVVGYGYVGRTFHAPLIASTPGLQLHSVVSSKPQQPQADFREVRVLPDLEAALADPALDAVVIATPNQTHAPMALQALAAGKHVLVDKPFALDAAQARTVVDAAAEAGKIVSVFQNRRWDADFLTVRRLIEDGQLGEVVEFHSHFDRYRPQVRDRWRESDIPGAGLWYDLGPHLLDQALQLFGMPQAISADLQRQRTQARSDDYFNVVLRYPRLRVILHAGSLVADGSLRFAVHGTRGSYLKHGADTQEDQLRAGRRPGTAGWGMDPLPGTLTRVDDEGRVHTHQPDGVPGDYRHCYAAFRDAMAGTAPPPVSAADAVRLMELLELAQRGAALGQVLWLEGNSSD","EI, LCI, MuI,; also recorded: AI, NI",Co,"Sn, Zn",9.1,pH 6.5-7.5,Only SIS → SI,–,"SI, DCI",100
